Reference: patent publication US20250382355A1 (Merck Sharp & Dohme, published 2025)

B1: 5D7 VHH (VHH)
VHH: QVQLVESGGGLVQAGGSLRLSCAASGRTGSRYIMGWFRQAPGKEREFVAAINWRGDSTYYADSVKGRFTIARDNAKNTAYLQMNSLKPEDTAVYYCVADRGESYYYTRSTEYTYWGQGTQVTVSS
B2: 3D4 VHH (VHH)
VHH: QVQLVESGGGLVQPGGSLRLSCAASGFTLDLNSIGWFRQAPGKEREGVSCISPSGSRMHYADSVKGRFTISRDNAKNTVYLQMNSLKPEDTAVYYCATGSPSYHYCSMYGLEYDSWGQGTQVTVPS
B3: 11F8 VHH (VHH)
VHH: QVQLVESGGGLVQAGGSLRLSCAASGRTVGYYAVGWFRQAPGKERDFVAAISWSGRNTNYADSVTGRFTIFRDNAKNTVDLQMNSLKPEDTAVYYCAADYWNYGSGSEVPNNYDTWGQGTQVTVSS
B4: 15H1 VHH (VHH)
VHH: QVQLVESGGGLAQAGGSLRLSCASSGLIFSGSAMGWFRQAPGKEREFVGVISWNGRTTYADSVKGRFTISRDDAVNMVWLQMNNLKPEDTAVYYCAADHLNYGSGDVNPRTYDYWGQGTQVTVSS
B5: 1E4 VHH (VHH)
VHH: QVLLVESGGGLVQAGGLLRLACSASGRTFTENVMGWFRQAPGKEREFVAAINWNTGSTYYSDSRKGRFTISKDNAKNTMFLQINNLKPEDTAVYYCGGTSSSYYYIGEFIPDYWGQGTQVTVSS
B6: 9B2 VHH (VHH)
VHH: QVQLVESGGGLVQPGGSLRLSCAASGFTLDNYAIGWFRQAPGKEREGVSCISSSDGDTQYADSVKGRFTISRDNAKNTVYLQMNSLKPEDTAVYYCAVEKVYARSWFFHLCSELDFGSWGQGTQVTVSS
B7: 10B8 VHH (VHH)
VHH: QVQLVESGGGLVQPGGSLRLSCAASGITLDYYAIAWFRQAPGKEREGVSCFCSSDGDIRYADSVKGRFTISRDNAKNTVYLQMNSLKPEDTAVYYCATERVYSSTWFFHRYSELDFGSWGRGTQVTVSS
B8: 8E9 VHH (VHH)
VHH: QVQLVESGGGLVEAGGSLRLSCVASGSSSSINAMGWYRQAPGKQRELVASISHDGETKYANSVKGRFTISRGNAKNTIYLQMNSLKPEDTAVYYCVGDVAWVVVAGEYDYWGQGTQVTVSS
B9: 5A6 VHH (VHH)
VHH: QVQLVESGGGLAQAGGSLRLSCATSGLTFSMSAMGWFRQAPGNEREFVGVINWNGGSSRYADSVRGRFTISRDNAKNTVYLQMNSLKPEDTGVYYCAADALNIGTGEVNPRLYDYWGQGTQVMVSS
B10: 19E10 VHH (VHH)
VHH: QVQLVESGGGLVQPGGSLRLSCVASGSTISINSMGWYRQAPGKAREMVATITNDGPIKYADPVKGRFTISRDNPKNTVYLQMNSLKPEDTAVYYCVADRAYWLAGEWEYWGQGTQVTVSS
B11: 13C8 VHH (VHH)
VHH: QVQLVESGGGLVQAGGSLRLSCAASGRTVNKYMTGWFRQTPGKEREFVASIDWSSTTTHYANSVKGRFTISRDKVKNTVYLQMNGLKPEDTAVYYCAAHQDSSYGYTILPIDYDSWGQGTQVTVSS
B12: 1A11 VHH (VHH)
VHH: QVQLVESGGGLVQAGGSLRLSCEVSGSIYSINSMGWYRQAPGKQRELVAGIVSDGRINYADSVKGRFTISRAKNTVYLQMNSLKPEDTAVYYCAADRAFVYAGDYDYLGQGTQVTVSS
B13: 15H7 VHH (VHH)
VHH: QVQLVESGGRLVQAGGSLRLSCAAPGRTFRNLTLGWFRQAPGKEREFVASTSWPDDEMTYYTDSVKGRFTISRDNAKNTVYLQMNSLKPEDTAVYYCAAASWSGRSTLSYDYDYWGQGTQVTVST

Each binder was assayed against SARS-CoV-2 prefusion-stabilized spike protein (SARS-CoV-2-PreS) (SARS-CoV-2, UniProt P0DTC2 14-1208) (assay: Biacore, apparent affinity).
With B1 the Kd was 1.5 nM. For B2, the Kd was < 0.2 nM. Binder B3 has a Kd of 0.95 nM. For B4, the Kd was 0.6 nM. For B5, the Kd was 0.25 nM. B6 was tested, and the Kd was 0.61 nM. With B7 the Kd was < 0.2 nM. For B8, the Kd was 5.7 nM. B9 was tested, and the Kd was 0.46 nM. B10 gave a Kd of 0.73 nM. B11 showed a Kd of 12 nM. In the case of B12, the Kd is reported as < 0.2 nM. B13 gave a Kd of 0.33 nM.
